Assay results reported in paper PMC3204175.

Target: CALM_(2091)AF10 (human) (UniProt Q13492)
Assay: FRET or BRET

“CALM_(2091)AF10 (from UniProt Q13492 1-648)” showed an average FRET efficiency of 13% and a mean donor photobleaching decay constant (CFP with YFP; CFP alone 0.72) of 0.5.
